The assay addresses aFGF receptors on the surface of NBT-II cells (rat (endogenous in NBT-II)). Nature of the assay: radioligand binding.

The values that follow come from PMC2119551.

In turn, “Human recombinant acidic FGF (from UniProt P05230 1-155) (ligand)” gave a cpm bound (cells preincubated with 100 ng/ml pertussis toxin) of 11800 cpm, a cpm bound (cells preincubated with 10 ug/ml cholera toxin) of 13600 cpm, a cpm bound (cells preincubated with 100 uM forskolin) of 14300 cpm and a cpm bound (untreated cells) of 12700 cpm.
